# Source: patent US20110166062A1 (INDIANA UNIVERSITY RESEARCH AND TECHNOLOGY, published 2011)
# Bridges are numbered along the chain shown (N, C = ends). Where no end group is shown, it is not given here.
# T1: GIP receptor (UniProt P48546 22-466)
# T1 sequence (looked up): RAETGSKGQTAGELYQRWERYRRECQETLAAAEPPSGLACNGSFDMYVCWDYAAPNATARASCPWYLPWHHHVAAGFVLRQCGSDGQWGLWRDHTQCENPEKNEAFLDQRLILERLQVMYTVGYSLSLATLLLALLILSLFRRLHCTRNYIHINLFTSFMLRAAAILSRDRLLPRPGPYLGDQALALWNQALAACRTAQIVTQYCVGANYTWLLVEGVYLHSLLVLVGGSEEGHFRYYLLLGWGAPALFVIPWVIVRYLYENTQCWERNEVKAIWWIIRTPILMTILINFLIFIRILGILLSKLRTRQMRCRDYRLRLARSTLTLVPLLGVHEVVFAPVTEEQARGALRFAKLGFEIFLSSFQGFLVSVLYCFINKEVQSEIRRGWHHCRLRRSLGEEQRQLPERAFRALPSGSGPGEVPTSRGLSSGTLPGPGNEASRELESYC
# How the values were obtained:
# GLP-1 receptor = GLP-1 receptor (UniProt P43220 24-463, limits assumed); assay: cell-based or functional assay
# GIP receptor = target: T1, GIP receptor; assay: cell-based or functional assay
Binder,EC50 (GLP-1 receptor) [nM],EC50 (GIP receptor) [nM]
YAQGTFISDYSKYLDEQAAKEFVNWLLAGGPSSGAPPPS-NH2 (lactam 16-20; N-terminus assumed; SMILES CC[C@H](C)[C@H](NC(=O)[C@H](Cc1ccccc1)NC(=O)[C@@H](NC(=O)CNC(=O)[C@H](CCC(N)=O)NC(=O)[C@H](C)NC(=O)[C@@H](N)Cc1ccc(O)cc1)[C@@H](C)O)C(=O)N[C@@H](CO)C(=O)N[C@@H](CC(=O)O)C(=O)N[C@@H](Cc1ccc(O)cc1)C(=O)N[C@@H](CO)C(=O)N[C@@H](CCCCN)C(=O)N[C@@H](Cc1ccc(O)cc1)C(=O)N[C@@H](CC(C)C)C(=O)N[C@@H](CC(=O)O)C(=O)N[C@H]1CCC(=O)NCCCC[C@@H](C(=O)N[C@@H](CCC(=O)O)C(=O)N[C@@H](Cc2ccccc2)C(=O)N[C@H](C(=O)N[C@@H](CC(N)=O)C(=O)N[C@@H](Cc2c[nH]c3ccccc23)C(=O)N[C@@H](CC(C)C)C(=O)N[C@@H](CC(C)C)C(=O)N[C@@H](C)C(=O)NCC(=O)NCC(=O)N2CCC[C@H]2C(=O)N[C@@H](CO)C(=O)N[C@@H](CO)C(=O)NCC(=O)N[C@@H](C)C(=O)N2CCC[C@H]2C(=O)N2CCC[C@H]2C(=O)N2CCC[C@H]2C(=O)N[C@@H](CO)C(N)=O)C(C)C)NC(=O)[C@H](C)NC(=O)[C@H](C)NC(=O)[C@H](CCC(N)=O)NC1=O) [mt-146],13.1,0.391
YSQGTFTSDYSKYLDEQAAKEFVNWLLAGGPSSGAPPPS-NH2 (lactam 12-16; N-terminus assumed; SMILES CC(C)C[C@H](NC(=O)[C@H](CC(C)C)NC(=O)[C@H](Cc1c[nH]c2ccccc12)NC(=O)[C@H](CC(N)=O)NC(=O)[C@@H](NC(=O)[C@H](Cc1ccccc1)NC(=O)[C@H](CCC(=O)O)NC(=O)[C@H](CCCCN)NC(=O)[C@H](C)NC(=O)[C@H](C)NC(=O)[C@H](CCC(N)=O)NC(=O)[C@@H]1CCC(=O)NCCCC[C@H](NC(=O)[C@H](CO)NC(=O)[C@H](Cc2ccc(O)cc2)NC(=O)[C@H](CC(=O)O)NC(=O)[C@H](CO)NC(=O)[C@@H](NC(=O)[C@H](Cc2ccccc2)NC(=O)[C@@H](NC(=O)CNC(=O)[C@H](CCC(N)=O)NC(=O)[C@H](CO)NC(=O)[C@@H](N)Cc2ccc(O)cc2)[C@@H](C)O)[C@@H](C)O)C(=O)N[C@@H](Cc2ccc(O)cc2)C(=O)N[C@@H](CC(C)C)C(=O)N[C@@H](CC(=O)O)C(=O)N1)C(C)C)C(=O)N[C@@H](C)C(=O)NCC(=O)NCC(=O)N1CCC[C@H]1C(=O)N[C@@H](CO)C(=O)N[C@@H](CO)C(=O)NCC(=O)N[C@@H](C)C(=O)N1CCC[C@H]1C(=O)N1CCC[C@H]1C(=O)N1CCC[C@H]1C(=O)N[C@@H](CO)C(N)=O) [mt-155],0.025,0.665
YSQGTFTSDYSKYLDEQAAKEFIAWLLAGGPSSGAPPPS-NH2 (lactam 16-20; N-terminus assumed; SMILES CC[C@H](C)[C@H](NC(=O)[C@H](Cc1ccccc1)NC(=O)[C@H](CCC(=O)O)NC(=O)[C@@H]1CCCCNC(=O)CC[C@H](NC(=O)[C@H](CC(=O)O)NC(=O)[C@H](CC(C)C)NC(=O)[C@H](Cc2ccc(O)cc2)NC(=O)[C@H](CCCCN)NC(=O)[C@H](CO)NC(=O)[C@H](Cc2ccc(O)cc2)NC(=O)[C@H](CC(=O)O)NC(=O)[C@H](CO)NC(=O)[C@@H](NC(=O)[C@H](Cc2ccccc2)NC(=O)[C@@H](NC(=O)CNC(=O)[C@H](CCC(N)=O)NC(=O)[C@H](CO)NC(=O)[C@@H](N)Cc2ccc(O)cc2)[C@@H](C)O)[C@@H](C)O)C(=O)N[C@@H](CCC(N)=O)C(=O)N[C@@H](C)C(=O)N[C@@H](C)C(=O)N1)C(=O)N[C@@H](C)C(=O)N[C@@H](Cc1c[nH]c2ccccc12)C(=O)N[C@@H](CC(C)C)C(=O)N[C@@H](CC(C)C)C(=O)N[C@@H](C)C(=O)NCC(=O)NCC(=O)N1CCC[C@H]1C(=O)N[C@@H](CO)C(=O)N[C@@H](CO)C(=O)NCC(=O)N[C@@H](C)C(=O)N1CCC[C@H]1C(=O)N1CCC[C@H]1C(=O)N1CCC[C@H]1C(=O)N[C@@H](CO)C(N)=O) [mt-151],0.126,0.852
